Measurements from patent US20240325555A1 (LANOVA MEDICINES, published 2024).

T1: human LIV-1 (human, UniProt Q13433 29-755)
T1 construct: whole, on cells; also called H-LIV1
T1 sequence (looked up): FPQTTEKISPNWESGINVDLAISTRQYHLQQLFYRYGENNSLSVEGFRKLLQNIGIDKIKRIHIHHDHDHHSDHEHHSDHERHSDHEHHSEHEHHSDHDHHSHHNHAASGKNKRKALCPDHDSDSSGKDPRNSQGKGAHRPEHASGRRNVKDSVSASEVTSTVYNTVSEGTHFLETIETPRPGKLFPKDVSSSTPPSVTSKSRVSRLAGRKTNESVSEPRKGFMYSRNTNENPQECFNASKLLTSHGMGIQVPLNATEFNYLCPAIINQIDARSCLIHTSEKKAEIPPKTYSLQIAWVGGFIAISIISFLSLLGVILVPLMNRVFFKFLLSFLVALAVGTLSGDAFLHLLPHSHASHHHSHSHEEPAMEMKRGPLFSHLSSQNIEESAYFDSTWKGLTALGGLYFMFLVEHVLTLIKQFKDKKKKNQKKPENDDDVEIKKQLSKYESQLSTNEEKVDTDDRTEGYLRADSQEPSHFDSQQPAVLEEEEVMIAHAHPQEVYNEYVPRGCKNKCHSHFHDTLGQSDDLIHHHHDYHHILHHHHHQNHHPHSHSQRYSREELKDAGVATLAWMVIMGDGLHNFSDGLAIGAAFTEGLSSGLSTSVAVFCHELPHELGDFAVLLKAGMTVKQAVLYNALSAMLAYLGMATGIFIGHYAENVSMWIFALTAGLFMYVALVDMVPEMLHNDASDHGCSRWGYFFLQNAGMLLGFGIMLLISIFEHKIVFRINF


What was measured:
[1] = target: T1, human LIV-1; assay: FACS, HEK293/H_LIV-1 cells
Experimental: (§1) In this example, cell based binding of humanized antibodies (hu Abs) on human LIV-1-expressing cells were assessed using flow cytometry.
(§2) Cell based binding of hu-Abs on human LIV-1 expressing cells were assessed using flow cytometry. Briefly, the HEK293/H_LIV-1 cells were incubated with hu-Abs (from 100 nM, 6 folds dilution, 8 points). After incubation at 4° C. for 60 minutes, the cells were washed with FACS buffer twice, then stained with fluorescent conjugated secondary antibody at 4° C. for 30 minutes. After that the cells were washed twice and analyzed by flow cytometry.

[2] = target: T2, cynomolgus LIV-1 (cynomolgus, UniProt A0A2K5WH46 30-741); assay: FACS, HEK293/Cyno_LIV-1 cells
[3] = target: T2, cynomolgus LIV-1; assay: FACS, cyno LIV-1 cells
Target sequence in this assay (A0A2K5WH46 entry or part of it): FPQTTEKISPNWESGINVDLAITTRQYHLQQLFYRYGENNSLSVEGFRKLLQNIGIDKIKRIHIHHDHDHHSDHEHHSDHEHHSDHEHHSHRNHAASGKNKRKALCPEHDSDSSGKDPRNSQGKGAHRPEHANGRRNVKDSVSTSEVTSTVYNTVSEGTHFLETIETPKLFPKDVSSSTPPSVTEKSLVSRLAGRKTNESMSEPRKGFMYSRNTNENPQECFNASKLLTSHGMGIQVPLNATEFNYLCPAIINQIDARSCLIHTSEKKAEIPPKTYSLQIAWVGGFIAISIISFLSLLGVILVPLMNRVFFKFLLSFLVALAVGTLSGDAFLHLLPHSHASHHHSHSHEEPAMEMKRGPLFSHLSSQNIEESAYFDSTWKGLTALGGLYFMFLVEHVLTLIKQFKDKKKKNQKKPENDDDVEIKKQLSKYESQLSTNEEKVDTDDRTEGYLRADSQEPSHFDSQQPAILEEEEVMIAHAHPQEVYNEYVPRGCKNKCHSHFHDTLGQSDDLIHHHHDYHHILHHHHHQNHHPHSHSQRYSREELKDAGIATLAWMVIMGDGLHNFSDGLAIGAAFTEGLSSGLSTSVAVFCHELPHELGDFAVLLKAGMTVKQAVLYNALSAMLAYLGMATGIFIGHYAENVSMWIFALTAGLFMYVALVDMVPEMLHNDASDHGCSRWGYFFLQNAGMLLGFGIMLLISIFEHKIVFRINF

[4] = target: T1, human LIV-1; assay: FACS, human LIV-1 cells
Experimental: as §1, §2

[5] = target: T1, human LIV-1; assay: cell-based or functional assay
[6] = target: T1, human LIV-1; assay: cell-based or functional assay; remark: listed apart in the source
[7] = target: T1, human LIV-1; assay: FACS, HEK293/H_LIV-1 cells; remark: listed apart in the source
Experimental: (§3) In this example, cell based binding of chimeric Abs on human and cyno LIV-1 over-expressing HEK 293 cells were assessed using flow cytometry.
(§4) Briefly, cells were incubated with chimeric Abs (from 100 nM, 5 folds dilution, 8 points). After incubation at 4° C. for 60 minutes, the cells were washed with 2% FBS/PBS buffer twice, then stained with fluorescent conjugated secondary antibody at 4° C. for 30 minutes. After that the cells were washed twice and resuspended in 80 μL of 2% FBS/PBS buffer. Fluorescent signal of binding was detected using Agilent. The EC50 was calculated using the GraphPad Software (LaJolla, CA).

[8] = target: T2, cynomolgus LIV-1; assay: FACS, HEK293/Cyno_LIV-1 cells; remark: listed apart in the source
Experimental: as §3, §4

Row | Binder | EC50 [1] [nM] | Top (MFI) [1] [MFI] | EC50 [2] [nM] | Top (MFI) [2] [MFI] | EC50 [3] [nM] | Top (MFI) [3] [MFI] | EC50 [4] [nM] | Top (MFI) [4] [MFI] | EC50 [7] [nM] | Top (MFI) [7] [MFI] | EC50 [8] [nM] | Top (MFI) [8] [MFI] | also measured
1 | 124H4D11.p2.z1 (antibody, V domains shown) VH: QVQLVQSGAEVVKPGASVKVSCKASGFNIKDYYMHWVRQAPGQGLEWIGWIDPENDDTEYDPKFQGRVTMTADTSTSTVYMELSSLRSEDTAVYYCAARYYAFDYWGQGTMVTVSS VL: DVQMTQSPSSLSASVGDRVTITCRSSQSIVHSNANTYLEWYLQKPGKSPKLLIYKVSNRFSGVPDRFSGSGSGTDFTLTISSLQPEDFATYYCFQGSQVPPTFGQGTRLEIK | 0.89 | 16800 | 0.29 | 8200 | – | – | – | – | – | – | – | – | –
2 | 290F10G10.p1.Z5 (antibody, V domains shown) VH: EVQLVQSGAEVKKPGASVKVSCKASGYTFTSYWIHWVRQAPGQGLEWMGTIYPGDADTRSTQKFKDRVTVTADKSTSTVYMELSSLRSEDTAVYYCARSLIHDDYDKYYFDYWGQGTTVTVSS VL: DIQMTQSPSSLSASVGDRVTITCKARQDINKYIAWYQQKPGKAPKLLIHYTSILQPGIPSRFSGSGSGRDYTFTISSLQPEDIATYYCLQYDYFFTFGGGTKVEIK | – | – | – | – | 0.5 | 7370 | 0.32 | 7390 | – | – | – | – | –
3 | 56B3E6 (antibody, V domains shown, Tested as chimeric antibody) VH: EVQLQQSGAELVRSGASVKLSCTASGFNIKDYYIHWVKQRPEQGLEWIGWIDPENDDTEYAPKFQGKATMTADTSSNTAYLHLSSLTSEDTAVYYCPHGGGFRVFDSWGQGTTLTVSS VL: DVLMTQTPLSLPVSLGDQASISCRSSQDIVHSNGNTYLEWYLQKPGQSPKLLIYKVSNRFSGVPDRFSGSGSGTDFTLKISRVEAEDLGVYYCFQGSHVPWTFGGGTKLEIK | – | – | – | – | – | – | – | – | 0.13 | 13300 | 0.21 | 9280 | ADCC reporter EC50 [5]: 1.3 nM; ADCC reporter Top (RFU) [5]: 52300 RFU; Internalization EC50 [6]: 5 nM; Internalization Top (RFU) [6]: 388000 RFU
4 | 72B12F1 (antibody, V domains shown, Tested as chimeric antibody) VH: EVQLQQSGAELVKPGASVKLSCTASGFNIKDTYMHWVKQRPEQGLEWIGRIDPANGNTKNDPRFQGKATITADTSSNTAYLQLSRLTSEDTAVYYCAGGGITTVVPDHWGQGTTLTVSS VL: DVVMTQTPLSLPVSLGDQASISCRSSQSLVHSNGNTYLQWYLQKPGQSPKLLIYKVSNRFSGVPDRFSGSGSGTDFTLKISRVEAEDLGVYFCSQSTHVPYTFGGGTKLEIK | – | – | – | – | – | – | – | – | 0.79 | 10700 | 0.36 | 7470 | Internalization EC50 [6]: 7.2 nM; Internalization Top (RFU) [6]: 353000 RFU
5 | 69B3D6 (antibody, V domains shown, Tested as chimeric antibody) VH: QVQLQQSGPELVKPGASVRISCKASGYTFTSYHMHWVKQRPGQGLEWIGWIYPGNVKNQSNEKFKGKATLTADKSSSTAYMQLSSLTSEDSAVYFCARSDITRAFFAYWGQGTLVTVSA VL: DVLMTQTPLSLPVSLGDQASISCRSSQSIVHSNGNTYLEWYLQKPGQSPKLLIYKVSNRFSGVPDRFSGSGSGTDFTLKISRVEAEDLGVYYCFQGSHVPYTFGGGTKLEIK | – | – | – | – | – | – | – | – | 0.18 | 11500 | 0.17 | 6600 | ADCC reporter EC50 [5]: 25.3 nM; ADCC reporter Top (RFU) [5]: 47200 RFU
6 | 50H12B3 (antibody, V domains shown, Tested as chimeric antibody) VH: QVQLKQSGPGLVQPSQSLSITCTVSGFSLTSYGVHWVRQSPGKGLEWLGVIWTGGTTDYNAAFKSRLSISKDNSKSQVFFKMNSLQANDTAIYYCARGPSSYWGQGTLVTVSA VL: DIVMTQSQKFMSTSVGDRVSVTCKASQNVDTNVVWYQQKPGQSPKALIHSTSYRYSGVPDRFTGSGSGTDFTLTISNVQSEDLAEYFCQQYNNYPWTFGGGTKLEIK | – | – | – | – | – | – | – | – | 0.23 | 63000 | 0.21 | 35900 | ADCC reporter EC50 [5]: 0.2 nM; ADCC reporter Top (RFU) [5]: 95600 RFU

Further lines, with some results ahead:

Row | EC50 [1] [nM] | Top (MFI) [1] [MFI] | EC50 [2] [nM] | Top (MFI) [2] [MFI] | EC50 [3] [nM] | Top (MFI) [3] [MFI] | EC50 [4] [nM] | Top (MFI) [4] [MFI] | EC50 [7] [nM] | Top (MFI) [7] [MFI] | EC50 [8] [nM] | Top (MFI) [8] [MFI] | Binder | also measured
7 | 7.48 | 17000 | – | 9030 | – | – | – | – | – | – | – | – | 124H4D11.p2.z13 (antibody, V domains shown) VH: QVPLVQSGAEVVKPGASVKLSCKASGFNIKDYYMHWVKQAPGQGLEWIGWIDPENDDTEYDPKFQGRATMTADTSTSTAYLELSSLRSEDTAVYYCNARYYAFDYWGQGTTVTVSS VL: DVLMTQSPSSLSVSVGDRATISCRSSQSIVHSNANTYLEWYLQKPGKSPKLLIYKVSNRFSGVPDRFSGSGSGTEFTLTISSVQPEDFGVYYCFQGSQVPPTFGGGTRLEIK | –
8 | 0.12 | 19400 | 0.04 | 8300 | – | – | – | – | – | – | – | – | 124H4D11.p2.z3 (antibody, V domains shown) VH: QVQLVQSGAEVVKPGASVKVSCKASGFNIKDYYMHWVRQAPGQGLEWIGWIDPENDDTEYDPKFQGRVTMTADTSTSTVYMELSSLRSEDTAVYYCAARYYAFDYWGQGTMVTVSS VL: DVLMTQSPSSLSVSVGDRATISCRSSQSIVHSNANTYLEWYLQKPGKSPKLLIYKVSNRFSGVPDRFSGSGSGTEFTLTISSVQPEDFGVYYCFQGSQVPPTFGGGTRLEIK | –
9 | – | 15800 | 3.8 | 7570 | – | – | – | – | – | – | – | – | 124H4D11.p2.z12 (antibody, V domains shown) VH: QVPLVQSGAEVVKPGASVKLSCKASGFNIKDYYMHWVKQAPGQGLEWIGWIDPENDDTEYDPKFQGRATMTADTSTSTAYLELSSLRSEDTAVYYCNARYYAFDYWGQGTTVTVSS VL: DVLMTQSPSSLSASVGDRVTITCRSSQSIVHSNANTYLEWYLQKPGKSPKLLIYKVSNRFSGVPDRFSGSGSGTEFTLTISSVQPEDFAVYYCFQGSQVPPTFGQGTRLEIK | –
10 | 37.2 | 15800 | 1.48 | 7750 | – | – | – | – | – | – | – | – | 124H4D11.p2.z7 (antibody, V domains shown) VH: QVPLVQSGAEVVKPGASVKVSCKASGFNIKDYYMHWVRQAPGQGLEWIGWIDPENDDTEYDPKFQGRATMTADTSTSTAYMELSSLRSEDTAVYYCNARYYAFDYWGQGTTVTVSS VL: DVLMTQSPSSLSASVGDRVTITCRSSQSIVHSNANTYLEWYLQKPGKSPKLLIYKVSNRFSGVPDRFSGSGSGTEFTLTISSVQPEDFAVYYCFQGSQVPPTFGQGTRLEIK | –
11 | – | – | – | – | 0.34 | 7140 | 0.24 | 7790 | – | – | – | – | 290F10G10.p1.Z4 (antibody, V domains shown) VH: EVQLVQSGAEVKKPGASVKVSCKASGYTFTSYWIHWVRQAPGQGLEWMGTIYPGDADTRSTQKFKDRVTVTADKSTSTVYMELSSLRSEDTAVYYCARSLIHDDYDKYYFDYWGQGTTVTVSS VL: DIQMTQSPSSLSASVGDRVTITCKARQDINKYIAWYQQKPGKAPKLLIYYTSILQPGVPSRFSGSGSGRDYTFTISSLQPEDIATYYCLQYDYFFTFGGGTKVEIK | –
12 | – | – | – | – | 0.4 | 6750 | 0.27 | 7600 | – | – | – | – | 290F10G10.p1.Z3 (antibody, V domains shown) VH: EVQLVQSGAEVKKPGASVKVSCKASGYTFTSYWIHWVRQAPGQGLEWMGTIYPGDADTRSTQKFKDRVTMTADTSTSTVYMELSSLRSEDTAVYYCARSLIHDDYDKYYFDYWGQGTTVTVSS VL: DIQMTQSPSSLSASVGDRVTITCKARQDINKYIAWYQHKPGKGPKLLIHYTSILQPGIPSRFSGSGSGRDYTFTISSLQPEDIATYYCLQYDYFFTFGGGTKVEIK | –
13 | – | – | – | – | 0.85 | 7190 | 0.56 | 7540 | – | – | – | – | 290F10G10.p1.Z1 (antibody, V domains shown) VH: EVQLVQSGAEVKKPGASVKVSCKASGYTFTSYWIHWVRQAPGQGLEWMGTIYPGDADTRSTQKFKDRVTMTADTSTSTVYMELSSLRSEDTAVYYCARSLIHDDYDKYYFDYWGQGTTVTVSS VL: DIQMTQSPSSLSASVGDRVTITCKARQDINKYIAWYQQKPGKAPKLLIYYTSILQPGVPSRFSGSGSGRDYTFTISSLQPEDIATYYCLQYDYFFTFGGGTKVEIK | –
